Consider one molecule from publication PMC7772510 (Molecules and Cells, 2020).

For the experiment, the target named is T1, His6-αX I-domain (UniProt P20702 146-332).
T1 sequence (looked up): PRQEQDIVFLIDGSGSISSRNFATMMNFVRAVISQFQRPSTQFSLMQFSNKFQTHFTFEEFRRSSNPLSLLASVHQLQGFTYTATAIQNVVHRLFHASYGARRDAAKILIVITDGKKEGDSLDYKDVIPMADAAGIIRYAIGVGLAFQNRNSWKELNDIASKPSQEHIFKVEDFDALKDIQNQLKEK
As to the kind of experiment: ELISA. A general note: ELISA stands for enzyme-linked immunosorbent assay.

B1: GST-αNTN (domain or fragment, human, UniProt P01024 750-775, looked up)
chain: NLDEDIIAEENIVSRSEFPESWLWNV
Take B1: the binding result is given as “binds”.
